Data on three molecules can be found in patent US20170165365A1 (SYMPHOGEN A S, published 2017).

Test [1] concerns the target T1, mouse EGFR antigen (mouse, UniProt Q01279 25-647, limits assumed).
T1 construct: In-house antigen coated for ELISA; also called mouse antigen; murine EGFR
Nature of the test: ELISA, coated mu EGFR. The essentials:
(§1)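 Antigens were coated and incubated with chimeric or humanized antibodies, or an isotype control, at different concentrations. After washing, bound antibody was detected with HRP-conjugated secondary antibodies. Non-human antigens were made in-house by transient expression in CHO or HEK293 cells.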
(In general: ELISA stands for enzyme-linked immunosorbent assay.)

Test [2] addresses T2, mouse HER2 antigen (mouse, UniProt P70424 23-653, limits assumed).
T2 construct: In-house antigen coated for ELISA; also called mouse antigen; murine HER2
Nature of the test: ELISA, coated mu HER2. The essentials:
as §1

Test [3] has as its target T3, human HER4 antigen (human, UniProt Q15303 26-649, limits assumed).
T3 construct: Antigen coated for ELISA
T3 sequence (looked up): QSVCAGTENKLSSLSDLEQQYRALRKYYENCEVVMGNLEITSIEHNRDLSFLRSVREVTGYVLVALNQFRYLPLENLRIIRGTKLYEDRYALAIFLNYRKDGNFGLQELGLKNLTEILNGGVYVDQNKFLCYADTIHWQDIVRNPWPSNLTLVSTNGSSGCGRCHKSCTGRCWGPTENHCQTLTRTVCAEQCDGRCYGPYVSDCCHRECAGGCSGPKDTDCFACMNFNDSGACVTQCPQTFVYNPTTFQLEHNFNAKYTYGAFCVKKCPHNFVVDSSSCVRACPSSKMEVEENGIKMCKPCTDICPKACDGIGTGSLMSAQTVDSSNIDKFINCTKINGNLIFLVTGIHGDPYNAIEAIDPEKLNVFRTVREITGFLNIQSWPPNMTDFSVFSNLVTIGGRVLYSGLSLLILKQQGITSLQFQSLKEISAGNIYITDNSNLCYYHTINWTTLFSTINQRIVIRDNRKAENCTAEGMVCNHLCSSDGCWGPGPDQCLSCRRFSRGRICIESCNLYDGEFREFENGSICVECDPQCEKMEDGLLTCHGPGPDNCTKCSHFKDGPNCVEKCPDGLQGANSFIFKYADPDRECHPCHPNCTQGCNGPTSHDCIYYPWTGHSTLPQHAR
Put plainly: ELISA, coated hu HER4. The gist of the method:
as §1

For test [4], the target named is T4, cynomolgus HER3 antigen (cynomolgus monkey, UniProt G7PIG5 20-643).
T4 construct: In-house antigen; also called cynomolgus antigen
T4 sequence (G7PIG5 entry or part of it): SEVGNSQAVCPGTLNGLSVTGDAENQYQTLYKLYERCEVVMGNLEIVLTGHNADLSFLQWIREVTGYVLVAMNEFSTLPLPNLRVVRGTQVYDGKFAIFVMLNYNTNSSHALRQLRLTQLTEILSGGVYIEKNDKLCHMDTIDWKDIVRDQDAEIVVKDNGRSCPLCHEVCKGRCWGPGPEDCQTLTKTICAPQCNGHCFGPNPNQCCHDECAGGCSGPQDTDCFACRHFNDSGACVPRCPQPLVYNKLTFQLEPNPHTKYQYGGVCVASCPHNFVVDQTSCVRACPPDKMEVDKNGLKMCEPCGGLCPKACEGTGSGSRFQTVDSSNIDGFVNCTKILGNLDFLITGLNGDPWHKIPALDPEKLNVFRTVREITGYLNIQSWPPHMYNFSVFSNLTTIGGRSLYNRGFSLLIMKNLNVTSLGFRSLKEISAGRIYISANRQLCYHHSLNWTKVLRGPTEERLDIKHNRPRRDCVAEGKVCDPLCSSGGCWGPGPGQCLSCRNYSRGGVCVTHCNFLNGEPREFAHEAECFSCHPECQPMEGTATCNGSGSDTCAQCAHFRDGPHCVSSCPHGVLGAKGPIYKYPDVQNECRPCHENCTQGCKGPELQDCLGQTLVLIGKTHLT
Nature of the test: ELISA, coated cy HER3. The gist of the method: as §1

Test [5] deals with T5, cynomolgus EGFR antigen (cynomolgus monkey, UniProt A0A2K5WK39 25-645).
T5 construct: In-house antigen; also called cynomolgus antigen
Nature of the test: SPR (ProteOn XPR36), IgG captured by anti-human Fc, soluble monovalent antigen, 1:1 fit. The gist of the method: (§2)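 Whole IgG captured on a mouse anti-human Fc surface; monovalent antigen injected at 50 μl/min as threefold serial dilutions from 100 nM stock.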

The target of test [6] is T6, human EGFR antigen (Sino Biologicals) (human, UniProt P00533 25-645).
T6 construct: Bought soluble antigen; also called human antigen
The description is as above. The essentials: as §2

In test [7] the target is T7, mouse HER3 antigen (mouse, UniProt Q61526 20-641, limits assumed).
T7 construct: In-house antigen coated for ELISA; also called mouse antigen; murine HER3
T7 sequence (Q61526 20-641 limits assumed): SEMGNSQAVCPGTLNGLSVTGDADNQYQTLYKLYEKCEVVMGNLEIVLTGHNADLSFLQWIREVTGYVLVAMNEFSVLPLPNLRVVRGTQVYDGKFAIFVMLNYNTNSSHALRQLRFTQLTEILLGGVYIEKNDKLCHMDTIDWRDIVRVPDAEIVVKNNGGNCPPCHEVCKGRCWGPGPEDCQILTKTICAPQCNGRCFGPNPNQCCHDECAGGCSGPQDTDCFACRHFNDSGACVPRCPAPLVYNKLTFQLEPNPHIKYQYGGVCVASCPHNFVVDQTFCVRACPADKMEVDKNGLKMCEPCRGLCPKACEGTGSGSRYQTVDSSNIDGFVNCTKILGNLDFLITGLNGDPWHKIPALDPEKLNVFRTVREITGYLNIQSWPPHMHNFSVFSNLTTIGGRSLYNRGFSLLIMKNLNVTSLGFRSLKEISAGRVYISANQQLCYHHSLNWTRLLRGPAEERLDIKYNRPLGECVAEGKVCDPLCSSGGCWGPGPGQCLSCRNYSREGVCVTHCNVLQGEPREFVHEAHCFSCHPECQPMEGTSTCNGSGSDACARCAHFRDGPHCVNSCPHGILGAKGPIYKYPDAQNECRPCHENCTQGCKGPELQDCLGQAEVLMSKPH
Put plainly: ELISA, coated mu HER3. The essentials: as §1

Test [8] concerns the target T8, murine HER4 antigen (mouse, UniProt Q61527 26-652, limits assumed).
T8 construct: In-house antigen coated for ELISA; also called mouse HER4
T8 sequence (looked up): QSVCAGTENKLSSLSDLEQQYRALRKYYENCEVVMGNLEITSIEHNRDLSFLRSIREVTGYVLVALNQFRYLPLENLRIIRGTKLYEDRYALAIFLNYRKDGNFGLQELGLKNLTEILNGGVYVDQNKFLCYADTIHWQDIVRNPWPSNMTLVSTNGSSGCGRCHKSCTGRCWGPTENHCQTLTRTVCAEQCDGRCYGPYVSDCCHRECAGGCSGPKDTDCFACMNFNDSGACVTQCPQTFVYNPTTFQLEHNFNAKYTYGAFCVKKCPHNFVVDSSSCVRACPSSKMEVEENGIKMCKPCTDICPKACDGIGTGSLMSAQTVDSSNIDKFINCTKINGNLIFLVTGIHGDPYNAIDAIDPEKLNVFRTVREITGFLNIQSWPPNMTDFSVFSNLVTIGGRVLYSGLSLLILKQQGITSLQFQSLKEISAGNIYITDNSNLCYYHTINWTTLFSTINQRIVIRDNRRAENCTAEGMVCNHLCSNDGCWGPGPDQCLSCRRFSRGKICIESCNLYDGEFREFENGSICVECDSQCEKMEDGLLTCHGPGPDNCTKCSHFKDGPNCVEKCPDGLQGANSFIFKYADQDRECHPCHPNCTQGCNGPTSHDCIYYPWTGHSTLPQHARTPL
Nature of the test: ELISA, coated mu HER4. The gist of the method:
as §1

The target of test [9] is T9, human HER3 antigen (Sino Biologicals) (human, UniProt P21860 20-643).
T9 construct: Bought soluble antigen; also called human antigen
Put plainly: ELISA, coated hu HER3. The essentials:
as §1

In test [10] the target is T10, human HER2 antigen (Sino Biologicals) (human, UniProt P04626 23-652).
T10 construct: Bought soluble antigen; also called human antigen
Put plainly: ELISA, coated hu HER2. The gist of the method: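 Read-out is HRP-conjugated secondary antibody detecting chimeric or humanized antibodies bound to coated antigen after washing. Antibodies were tested at different concentrations with an isotype control.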

The target in test [11] is T4, cynomolgus HER3 antigen. Nature of the test: ELISA on coated antigen. The procedure:
(§3) Antibody-antigen binding was measured by ELISA with coated antigens. Human antigens were obtained from Sino Biologicals. All other antigens were produced in-house by transient expression in CHO or HEK293 cells. Chimeric and humanized antibodies, as well as an isotype control antibody, were incubated with the coated antigens at different concentrations. After wash, bound antibodies were detected by HRP-(horse radish peroxidase)-conjugated secondary antibodies.

For test [12], the target named is T3, human HER4 antigen. Nature of the test: ELISA on coated antigen. How it is done: as §3
Test [13] concerns the target T5, cynomolgus EGFR antigen. Nature of the test: ELISA on coated antigen. The procedure: as §3
The target of test [14] is T7, mouse HER3 antigen. Nature of the test: ELISA on coated antigen. How it is done:
as §3

Test [15] addresses T2, mouse HER2 antigen. Nature of the test: ELISA on coated antigen. How it is done: as §3
In test [16] the target is T9, human HER3 antigen (Sino Biologicals). Nature of the test: ELISA on coated antigen. How it is done: as §3
Test [17] has as its target T6, human EGFR antigen (Sino Biologicals). Put plainly: ELISA on coated antigen. The procedure:
as §3

Test [18] deals with T8, murine HER4 antigen. Nature of the test: ELISA on coated antigen. How it is done: as §3
Test [19] deals with T1, mouse EGFR antigen. Put plainly: ELISA on coated antigen. The procedure: as §3
The target in test [20] is cynomolgus HER2 antigen (cynomolgus monkey). Nature of the test: SPR (ProteOn XPR36), IgG captured by anti-human Fc, soluble monovalent antigen, 1:1 fit.
Test [21] concerns the target T5, cynomolgus EGFR antigen. Nature of the test: ELISA, coated cy EGFR. The procedure:
as §3

For test [22], the target named is T10, human HER2 antigen (Sino Biologicals). Nature of the test: SPR (ProteOn XPR36), IgG captured by anti-human Fc, soluble monovalent antigen, 1:1 fit. The gist of the method: as §2
In test [23] the target is T6, human EGFR antigen (Sino Biologicals). Put plainly: ELISA, coated hu EGFR. How it is done: as §3

T2 sequence (P70424 23-653 limits assumed): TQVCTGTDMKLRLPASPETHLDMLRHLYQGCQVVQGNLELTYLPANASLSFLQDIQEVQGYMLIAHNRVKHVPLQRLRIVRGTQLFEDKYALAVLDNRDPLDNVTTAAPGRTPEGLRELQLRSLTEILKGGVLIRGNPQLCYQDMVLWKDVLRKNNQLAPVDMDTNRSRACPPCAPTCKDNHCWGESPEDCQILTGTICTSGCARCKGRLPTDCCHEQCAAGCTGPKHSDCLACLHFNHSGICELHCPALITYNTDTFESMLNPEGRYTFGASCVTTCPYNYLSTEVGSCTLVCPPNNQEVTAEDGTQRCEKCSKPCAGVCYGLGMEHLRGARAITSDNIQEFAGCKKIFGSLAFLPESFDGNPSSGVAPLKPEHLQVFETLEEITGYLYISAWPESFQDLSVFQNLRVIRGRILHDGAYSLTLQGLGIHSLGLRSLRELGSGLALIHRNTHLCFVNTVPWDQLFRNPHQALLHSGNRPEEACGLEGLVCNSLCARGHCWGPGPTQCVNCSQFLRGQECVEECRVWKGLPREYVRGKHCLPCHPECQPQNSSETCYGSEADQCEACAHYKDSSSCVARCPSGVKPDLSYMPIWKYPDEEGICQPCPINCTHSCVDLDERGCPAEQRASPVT

B1: chimeric anti-EGFR antibody 1565 (antibody, V domains shown)
VH: EVQLQQSGTELVKPGASVILSCKASGYTFTSYWMQWVKQRPGQGLEWIGNINPSNGGTSFNEEFKSRATLTVDKSSSTAYMQLSSLTSEDSAVYYCARDGGLYDGYYFDFWGQGTTLTVS
VL: NIVMTQSHKFMSTLIGARVSITCKASQDVDTAVAWYQQKPGQSPKLLIYWASTRHTGVPDRFTGSGSGTDFSLTVSNVQSEDLTDYFCQQYSSYPLTFGAGTKLELKR
notes: light chain entry is full length
B1: the binding result with mouse EGFR antigen [1], with mouse HER2 antigen [2], with human HER4 antigen [3], in the test with cynomolgus HER3 antigen [4], in the test with mouse HER3 antigen [7] and in the test with murine HER4 antigen [8] was “no binding (tested: 40 nM)” each time. For the same molecule, the binding result in [9] and in test [10] was “no binding (tested: 40 nM)” each time. For the same molecule, the Kd in the test with cynomolgus EGFR antigen [5] was found to be 28 nM; in test [6], 0.35 nM. The results for the koff (with cynomolgus EGFR antigen [5]; in [6]) were 0.016 s⁻¹ and 0.00058 s⁻¹, respectively. Also, the kon with cynomolgus EGFR antigen [5] came to 580000 M⁻¹ s⁻¹; in [6], 1.7e+06 M⁻¹ s⁻¹.

B2: humanized anti-HER2 antibody 11249 (antibody, V domains shown)
VH: QVQLVQSGAEVKKPGASVKVSCKASGYTFTSHWMHWVRQAPGQGLEWMGNINPSSGGTNYNEKFKSRVTMTVDTSTSTVYMELSSLRSEDTAVYYCARAYYDFSWFVYWGQGTLVTVSS
VL: DIQMTQSPSSLSASVGDRVTITCRSSQDISNYLNWYQQKPGKAPKLLMYISRLHSGVPSRFSGSGSGTDYTFTISSLQPEDIATYYCQQGNTLPLTFGGGTKVEIK
For B2, the binding result (with cynomolgus HER3 antigen [11]; in the test with human HER4 antigen [12]; in the test with cynomolgus EGFR antigen [13]; with mouse HER3 antigen [14]; with mouse HER2 antigen [15]; in test [16]) was “no binding (tested: 40 nM antibody (negative: OD<0.1))” each time. The binding result (in test [17]; with murine HER4 antigen [18]; in the test with mouse EGFR antigen [19]) was “no binding (tested: 40 nM antibody (negative: OD<0.1))” each time. Moreover, the Kd in test [20] is 2.5 nM. In test [20], the koff turned out to be 0.00038 s⁻¹. Also, in test [20], the kon was found to be 150000 M⁻¹ s⁻¹.

B3: chimeric anti-HER2 antibody 4517 (antibody, V domains shown)
VH: EVQLVESGGDLVKPGGSLKLSCAASGFTFSSYGMSWVRLTPDKRLEWVATISGGGSYTYYPDSVKGRFTISRDIAKSTLYLQMSSLKSEDTAVYYCARKGNYGNYGKLAYWGQGTSVTVS
VL: DIQMTQSPASLSVSVGETVTITCRASENIYSNLAWYQQEQGKSPQLLVYAATNLADGVPSRFSGSGSGTQYSLKINSLQSEDFGSYYCQHFWGTPWTFGGGTKLEIKR
notes: as for B1
On to B3, for which the binding result in the test with cynomolgus EGFR antigen [21], in the test with mouse EGFR antigen [1], with mouse HER2 antigen [2], in the test with human HER4 antigen [3], in the test with cynomolgus HER3 antigen [4] and in the test with mouse HER3 antigen [7] was “no binding (tested: 40 nM)” in each case. Besides, the binding result (in the test with murine HER4 antigen [8]; in [9]; in [23]) was “no binding (tested: 40 nM)” each time. Also, the Kd came to 1.1 nM in test [22] and 3.7 nM in [20]. In addition, the koff in [22] is 0.00029 s⁻¹; in [20] it was 0.00086 s⁻¹. In addition, the figures for the kon in test [22] and in test [20] were 260000 M⁻¹ s⁻¹ and 230000 M⁻¹ s⁻¹, respectively.

For orientation: Kd means the free concentration of one partner at which half of the binding sites on the other are occupied at equilibrium, for simple one-to-one binding. Low readings indicate tighter binding, high ones weaker binding. The koff is the rate constant with which the complex falls apart. Higher therefore signals a short-lived complex. One may read the kon as a measure of how fast the partners come together. A low value points to slower complex formation.
